These results are taken from patent publication US20250333521A1 (SYNTHEKINE, published 2025).

The target in the assay is T1, human IL10Rb ECD antigen (human, UniProt Q08334 20-220).
T1 construct: Coat of the panning and PE-ELISA plates; also called hIL10Rb extracellular domain; IL10Rb (plate coat)
T1 sequence: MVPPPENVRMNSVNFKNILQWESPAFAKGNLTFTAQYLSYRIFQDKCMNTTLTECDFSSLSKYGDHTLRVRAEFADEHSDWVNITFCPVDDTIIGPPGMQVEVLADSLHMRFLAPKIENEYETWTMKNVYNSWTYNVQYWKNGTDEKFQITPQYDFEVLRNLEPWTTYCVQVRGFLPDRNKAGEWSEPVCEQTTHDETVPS
Put plainly: periplasmic extract ELISA of phage clones on antigen-coated plate. On the procedure: Upon completion of the biopanning of Example 3, three 96-well plates of individual phage clones were isolated in order to perform periplasmic extract ELISA (PE-ELISA) on IL10Rb coated plates to identify positive VHH binders that selectively bound IL10Rb. A 96-well plate was coated with IL10Rb and PBS under the same conditions. Next, wells were blocked at 37° C. for 1 h. Then, 100 μl of extracted antibodies was added to each well and incubated for 1 h. Subsequently, 100 μl of anti-tag polyclonal antibody conjugated to HRP was added to each well and incubated at 37° C. for 1 h. Plates were developed with TMB substrate. The reaction was stopped by the addition of H2SO4. Absorbance at 450 nm was read on a microtiter plate reader. Antibodies with absorbance of the antigen-coated well at least threefold greater than PBS-coated control are VHHs that specifically bind to IL10Rb. Positive clones were sequenced, and sequences analyzed to identify unique clonotypes

B1: hIL10Rb_VHH-4 (VHH)
VHH: QVQLQESGGGSIQAGGSLRLSCAASRYLYSIDYMAWFRQSPGKEREPVAVIYTASGATFYPDSVKGRFTISQDNAKMTVYLQMNSLKSEDTAMYYCAAVRKTDSYLFDAQSFTYWGQGTQVTVSS
notes: Periplasmic extract of the phage clone (pMECS, HA/His) as tested in PE-ELISA; not shown: HA/His tag of the pMECS phagemid
With B1, the binding result is “binds”.

B2: hIL10Rb_VHH-6 (VHH)
VHH: QVQLQESGGGSIQAGGSLTLSCAASRDLYSTNYVAWFRQSPGKEREAVAVIYTASGATLYSDSVKGRFTISQDNAKMTVYLQMNSLKSEDTAMYYCAAVRKTGHYLFDAQSFTYWGQGTQVTVSS
notes: as for B1
B2: the binding result was “binds”.
